B1: P3d (modified gluten peptide …) (peptide)
peptide: PYSQPESPYMQPQPF
B2: P3c (modified gluten peptide …) (peptide)
peptide: PYPHPRLPYTQPQPF
B3: P1g (modified gluten peptide …) (peptide)
peptide: LQLQPFWQPKLPGPQ
B4: P1f (modified gluten peptide …) (peptide)
peptide: LQLQPFDQPRLPWPQ
B5: P3f (modified gluten peptide …) (peptide)
peptide: PYPHPWLRGPQPQPF
B6: P2g (modified gluten peptide …) (peptide)
peptide: KLPYPQGRLPGPQPQ

Experimental findings from patent publication US20210292381A1 are described below.

The assay addresses purified MHC. As to the kind of experiment: competition with radiolabeled known MHC binding peptide for purified MHC.
A word on the IC50: it is the concentration that gives 50% inhibition. On to B1, for which the IC50 amounted to 1.99 µM.

B2: the IC50 amounted to 2.99 µM.

The molecule B3 registered an IC50 of 11.2 µM. This IC50 lies about 3.7-fold higher than the previous one.

In the case of B4, the IC50 was determined as 5.44 µM. As to B5, the IC50 worked out at 0.879 µM. In the case of B6 it was 3.75 µM.
